Assay results reported in publication PMC11503464, “Copper-61 is an advantageous alternative to gallium-68 for PET imaging of somatostatin receptor-expressing tumors: a head-to-head comparative preclinical study” (Frontiers in Nuclear Medicine, 2024).

Legend:
HEK-SST2 xenografts [1] = conditions: female, athymic nude-Foxn1^nu/Foxn1^+, mouse, in vivo, 200 pmol, 1 h
[2] = format: physicochemical; conditions: pH 7.4
Protocol: Briefly, the radiotracer (10 µl, 1 µM) was added to 1 ml of a 1:1 pre-saturated mixture of 1-octanol and phosphate-buffered saline (PBS pH 7.4). The solution was vortexed for 30 min and then centrifuged at 3,000 rpm to achieve phase separation. Aliquots of 0.1 ml from each phase were collected and measured in a γ-counter. The distribution coefficient was calculated as the average of the logarithmic values (n = 3) of the ratio between the radioactivity in the organic and PBS phases. [^68Ga]Ga-DOTA-TOC was used as a reference.

[3] = Stability of labeling solutions at room temperature by radio-HPLC; format: physicochemical; conditions: labeling solution stored at room temperature
Protocol: An aliquot of DOTA-TOC or NODAGA-TOC (3–6 nmol, 1 mg/ml in TraceSelect water) was diluted in 0.25–0.30 ml ammonium acetate (0.5 M, pH 8), followed by the addition of [^61Cu]CuCl2 (30–150 MBq). The reaction mixture was incubated for 15 min at 95°C (DOTA-TOC) or at room temperature (NODAGA-TOC). The pH of the reaction mixture was between 5 and 6. Quality control was performed on a Shimadzu 2020 HPLC system connected to a Berthold radio detector (Flow Star 513).

HEK-SST2 cells [4] = test: Efflux from HEK-SST2 cells; format: cell-based, human
Protocol: The efflux was studied after 1 h incubation of the cells with the radiotracer at 37°C and the removal of the unbound fraction and the cell membrane-bound fraction, as described above (acid-wash). The cells were then incubated with fresh medium at 37°C either alone or with a competitor (1,000-fold excess of DOTA-TOC, 2.5 µM/well) for 10, 20, 30, 45, 60, 90, 120, 150, 180, and 240 min. At each time point, the efflux (or retention) was measured after the removal of the medium without or with the competitor and replacement with fresh pre-warmed (37°C) medium alone or with the competitor. At the end of the experiment, the cells were detached using 1 M NaOH at 37°C and collected to determine the remaining cell-associated radiotracer.

HEK-SST2 xenografts [5] = test: PET/CT in vivo specificity (DOTA-TOC pre-injection) in HEK-SST2 xenografts; set-up: species or system mice; conditions: PET/CT 1 h p.i.
Protocol: The mice were anesthetized with 1.5% isoflurane and dynamic PET scans were acquired from 0 to 1 h post-injection (p.i.). The mice were euthanized by CO2 at 4 h p.i., their bladders were mechanically emptied, and static PET scans were acquired for 30 min. […] The PET images were acquired in list mode using a small-animal PET scanner (β-CUBE, Molecubes, Ghent, Belgium) with a spatial resolution of 0.85 mm and an axial field-of-view of 13 cm. All PET scans were decay corrected and reconstructed into a 192 × 192 × 384 matrix by an ordered subsets maximization expectation (OSEM) algorithm using 30 iterations, a voxel size of 400 µm × 400 µm × 400 µm, and15 min per frame. Computed tomography (CT) data was used to apply attenuation correction on the PET data. The CT was imaged supine, headfirst, using the nanoSPECT/CT™ scanner (Bioscan Inc.). Topograms and helical CT scans of the whole mouse were first acquired using the following parameters: x-ray tube current: 177 µA, x-ray tube voltage 45 kVp, 90 s, and 180 frames per rotation, pitch 1. […] The specificity of the ^61Cu-labeled tracers was assessed in HEK-SST2 xenografts by administering DOTA-TOC (100 µl/200 nmol) 2–5 min pre-injection, followed by the injection of the radiotracer (100 µl/200 pmol/4 MBq). […]

HEK-SST2 cells [6] = test: Cellular uptake and distribution on intact HEK-SST2 cells; format: cell-based, human; conditions: specific uptake, after 4 h at 37°C
Protocol: At the defined time points, the medium was removed, and the cells were washed twice with ice-cold PBS. The cells were then treated twice for 5 min with ice-cold glycine solution (0.05 M, pH 2.8) to detach the cell membrane-bound fraction (acid released). Afterward, the cells containing the internalized fraction were detached using NaOH 1 M at 37°C and collected for measurement. [^68Ga]Ga-DOTA-TOC was evaluated as a reference.

With `C[C@@H](O)[C@@H]1NC(=O)[C@H](CCCCN)NC(=O)[C@@H](Cc2c[nH]c3ccccc23)NC(=O)[C@H](Cc2ccc(O)cc2)NC(=O)[C@@H](NC(=O)[C@@H](Cc2ccccc2)NC(=O)CN2CCN(CC(=O)O)CCN(CC(=O)O)CCN(CC(=O)O)CC2)CSSC[C@@H](C(=O)N[C@H](CO)[C@@H](C)O)NC1=O` [[^61Cu]Cu-DOTA-TOC] [metal not drawn] the Heart uptake (HEK-SST2 xenografts [1]) was 0.63 ± 0.07 %IA/g, the Intestine uptake (HEK-SST2 xenografts [1]) was 2.94 ± 0.15 %IA/g and the Liver uptake (HEK-SST2 xenografts [1]) was 3.59 ± 0.49 %IA/g. For the same compound, the “log D(O/PBS pH 7.4)” value [2] was −2.81 ± 0.29, the “Radiochemical purity (%) 2 h” value ([3]; 2 h after end of synthesis) was 96 ± 1% and the “Radiochemical purity (%) 4 h” value ([3]; 4 h after end of synthesis) was 95 ± 1%. The “Efflux plateau in the absence of a competitor” value (HEK-SST2 cells [4]; after 2 h, 37°C, no further increase at 4 h) was “approximately 40%”, the Efflux with competitor (HEK-SST2 cells [4]; after 4 h at 37°C, DOTA-TOC (competitor) added to the medium) was 80% and the “Abdominal uptake (liver and intestine) after high excess DOTA-TOC pre-injection” value (HEK-SST2 xenografts [5]) was “not suppressed”. For the same compound, the “Cellular uptake (surface bound + internalized)” value (HEK-SST2 cells [6]) was 78.3 ± 1.3%.
